Laboratory results taken from PMC11162469, “Discovery of RXFP2 genetic association in resistant hypertensive men and RXFP2 antagonists for the treatment of resistant hypertension” (Scientific Reports, 2024).

How the values were obtained:
[1] = Pharmacokinetic study of RXFP2 mAbs in rat; format: in vivo, Wistar Han rats
Description: For the pharmacokinetic study of RXFP2 mAbs in rat, 1G1, 2D4, 4B1, 4G6, 1F2, and 3F3 were prepared in phosphate buffered saline (0.100 mg/mL) with low endotoxin (≤ 0.76 EU/mL). Adult male Wistar Han rats (n = 3/mAb) were administered 1 mg/kg subcutaneously (10 mL/kg). Blood samples (100 µL) were collected in EDTA containing tubes at 0.25, 3, 6 24, 48, 96, 168 (day 7), 336 (day 14), 504 (day 21), and 672 (day 28) hours post dose, immediately centrifuged (6100 rpm), and 50 µL plasma stored at − 80 °C until assay. Rats maintained health throughout the study and were anesthetized (isoflurane to effect) and euthanized on day 28.
Frozen rat plasma samples were thawed and analyzed using a qualified analytical method based on sample dilution, followed by Electrochemiluminescence immunoassay analysis. The lower limit of quantification (LLQ) was 0.1 µg/mL using a 10 µL aliquot of 51-fold diluted rat plasma with a higher limit of quantification (HLQ) of 10 µg/mL. RXFP2 mAbs were captured with LDLa protein and detected with sulfo-tag labeled mouse anti-rat IgG2b. The computer systems that were used to acquire and quantify data included Gyrolab Workstation Version 8.1.5 and Watson LIMS version 7.6.1. Rat pharmacokinetic parameters were calculated by non-compartmental analysis (NCA) analysis using WinNonlin Phoenix 64 (version 8.3). Values are reported in mean ± standard deviation.

human RXFP2 = human RXFP2 (Homo sapiens, UniProt Q8WXD0); assay: INSL3-stimulated cAMP assay in HEK293 stably expressing human RXFP2
Description: (§2) RXFP activity assays were developed in HEK293 with stable expression of RXFP2 or RXFP1.
(§3) The same approach was used to generate stable HEK293 lines expressing human and rat RXFP1 and RXFP2 cDNA. The cAMP assay was conducted using the Eurofin Hithunter kit per manufacturer’s instructions in a 384-well format. All dose curve fitting and EC50 and IC50 determinations were performed in Prism (v9.3.0) using the non-linear fit, variable slope (four parameter) function.

rat RXFP1 = target: T1, rat RXFP1 (Rattus norvegicus, UniProt Q6R6I6); assay: Relaxin-stimulated cAMP assay in HEK293 stably expressing rat RXFP1; conditions: three-point selectivity screen, n = 2
T1 sequence (Q6R6I6 1-758): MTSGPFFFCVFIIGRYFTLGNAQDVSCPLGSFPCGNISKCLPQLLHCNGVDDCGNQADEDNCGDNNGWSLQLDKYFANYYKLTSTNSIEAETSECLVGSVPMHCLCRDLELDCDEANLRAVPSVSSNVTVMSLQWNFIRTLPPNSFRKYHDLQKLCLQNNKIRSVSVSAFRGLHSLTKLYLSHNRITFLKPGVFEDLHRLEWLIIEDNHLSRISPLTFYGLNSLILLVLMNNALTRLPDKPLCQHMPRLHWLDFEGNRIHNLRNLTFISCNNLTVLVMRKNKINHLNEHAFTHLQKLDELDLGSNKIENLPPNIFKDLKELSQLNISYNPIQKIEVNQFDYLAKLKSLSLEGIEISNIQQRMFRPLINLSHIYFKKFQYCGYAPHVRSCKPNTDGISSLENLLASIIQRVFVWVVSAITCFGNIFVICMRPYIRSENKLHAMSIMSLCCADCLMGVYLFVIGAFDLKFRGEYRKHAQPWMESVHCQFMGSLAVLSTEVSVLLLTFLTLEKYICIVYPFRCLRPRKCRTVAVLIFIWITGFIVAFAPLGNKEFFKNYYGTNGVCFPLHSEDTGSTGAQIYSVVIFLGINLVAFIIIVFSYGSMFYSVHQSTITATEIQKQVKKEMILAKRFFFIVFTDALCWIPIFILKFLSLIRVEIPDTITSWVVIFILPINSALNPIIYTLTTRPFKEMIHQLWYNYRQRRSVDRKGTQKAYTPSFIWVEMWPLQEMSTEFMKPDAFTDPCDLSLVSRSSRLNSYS
Description: as §2, §3

rat RXFP2 [2] = target: T2, rat RXFP2 (Rattus norvegicus, UniProt F7EMH8); assay: Cortisol secretion (ELISA) in H295R stably expressing rat RXFP2; format: cell-based; parameters: expressed in transfected cells; conditions: H295R-rRXFP2, 3.5 nM INSL3, 48 h, read-out: IC50 on INSL3-induced cortisol release
Description: (§1) RXFP2 antagonists were added to H295R-rRXFP2 before addition of INSL3 EC80 (3.5 nM) for 48 h, whereupon the cells and supernatants were collected. CYP11B1 and CYP11B2 mRNA were determined by qPCR and the RXFP2 blocker potencies were calculated (Fig. 5a). Fifteen antibodies have IC50s < 50 nM, and three of the top antibodies (1F2, 4G6, and 2D4) were selected for evaluation in steroid hormone secretion assays by ELISA.
The day after seeding, H295R cells were treated and incubated for 48 h before supernatants and cell lysates were collected. Treatments included INSL3, IgG, 1F2, and 4G6 at 0.035 pM–3.5 µM, 2D4 at 0.01 nM–1 uM, or phosphate buffered saline control. In RXFP2 antagonist assays, 3.5 nM INSL3 was used as the stimulus. Cortisol present in the adrenal cell supernatant at 48 h post treatment was detected by ELISA (R&D KGE008B). Sample dilution was optimized at 1/90 using a standard curve. Aldosterone was below the limit of detection by ELISA (R&D KGE016) and required liquid–liquid extraction (LLE) twice using methyl tetra butyl ether. Post extraction samples were dried (SPE Nitrogen dryer) and reconstituted for ELISA analysis. All samples were run in duplicates.

rat RXFP2 [3] = target: T2, rat RXFP2; assay: INSL3-stimulated cAMP assay in HEK293 stably expressing rat RXFP2; conditions: INSL3 EC80-stimulated cAMP, stable expression, N = 2;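 note: cAMP measured with an HitHunter kit in 384-well plates, 11-point dose–response curves up to 1 µM antibody, four-parameter variable-slope fit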
rat RXFP2 [4] = target: T2, rat RXFP2; assay: INSL3-stimulated CYP11B1 mRNA expression in H295R stably expressing rat RXFP2; format: cell-based; parameters: expressed in transfected cells; conditions: INSL3 EC80 (3.5 nM), 48 h, qPCR; N = 2
Description: as §1
Data entered as XY table, with x = [Inhibitor] (nM) and y = CYP11B2 or CYP11B1 fold change.

[5] = male Wistar Han rats, 1 mg/kg s.c., n = 3, mean ± SD

Chain of human RXFP2 (Q8WXD0 whole entry): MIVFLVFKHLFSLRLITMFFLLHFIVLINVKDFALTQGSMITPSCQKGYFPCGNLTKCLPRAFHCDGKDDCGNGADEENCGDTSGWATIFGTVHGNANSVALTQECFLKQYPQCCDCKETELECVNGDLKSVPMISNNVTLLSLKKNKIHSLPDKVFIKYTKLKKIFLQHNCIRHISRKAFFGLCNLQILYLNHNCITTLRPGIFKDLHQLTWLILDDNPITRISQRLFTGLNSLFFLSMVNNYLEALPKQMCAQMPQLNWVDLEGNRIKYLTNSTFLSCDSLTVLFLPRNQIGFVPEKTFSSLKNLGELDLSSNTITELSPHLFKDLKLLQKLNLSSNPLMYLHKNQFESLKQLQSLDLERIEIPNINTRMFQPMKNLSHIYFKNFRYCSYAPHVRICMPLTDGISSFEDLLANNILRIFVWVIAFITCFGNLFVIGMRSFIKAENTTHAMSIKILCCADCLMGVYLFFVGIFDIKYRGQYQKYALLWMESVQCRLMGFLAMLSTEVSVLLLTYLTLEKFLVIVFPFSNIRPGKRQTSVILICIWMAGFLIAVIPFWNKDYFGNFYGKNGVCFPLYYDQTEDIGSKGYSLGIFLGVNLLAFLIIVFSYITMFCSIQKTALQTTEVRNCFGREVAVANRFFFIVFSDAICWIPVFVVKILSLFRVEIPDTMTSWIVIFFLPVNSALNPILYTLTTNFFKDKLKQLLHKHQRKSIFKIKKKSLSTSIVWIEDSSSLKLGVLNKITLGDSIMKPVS
T2 sequence (F7EMH8 20-737): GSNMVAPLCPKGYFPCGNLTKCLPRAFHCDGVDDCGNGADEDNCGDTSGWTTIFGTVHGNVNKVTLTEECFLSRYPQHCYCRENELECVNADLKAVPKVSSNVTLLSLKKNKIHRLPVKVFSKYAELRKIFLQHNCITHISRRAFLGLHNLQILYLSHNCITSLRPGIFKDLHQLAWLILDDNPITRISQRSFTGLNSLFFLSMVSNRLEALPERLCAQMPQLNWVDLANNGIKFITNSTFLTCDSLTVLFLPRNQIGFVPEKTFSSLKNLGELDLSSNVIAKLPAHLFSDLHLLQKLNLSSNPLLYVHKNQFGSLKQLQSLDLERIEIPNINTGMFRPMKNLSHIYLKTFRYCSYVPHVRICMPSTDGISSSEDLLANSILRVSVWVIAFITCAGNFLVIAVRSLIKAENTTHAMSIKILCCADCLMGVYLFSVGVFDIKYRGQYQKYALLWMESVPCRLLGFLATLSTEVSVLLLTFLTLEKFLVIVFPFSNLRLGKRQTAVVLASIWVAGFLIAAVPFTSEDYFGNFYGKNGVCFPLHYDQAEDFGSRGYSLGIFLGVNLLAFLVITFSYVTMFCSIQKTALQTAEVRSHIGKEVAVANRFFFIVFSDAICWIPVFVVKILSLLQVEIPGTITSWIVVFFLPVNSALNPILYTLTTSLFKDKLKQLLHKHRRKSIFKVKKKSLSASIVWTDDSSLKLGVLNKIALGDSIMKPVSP

blockade of hRXFP2 (human RXFP2; INSL3-stimulated cAMP, HEK293-hRXFP2): strong blockade
HEK293-human RXFP2 cAMP % Max Response (human RXFP2; INSL3 EC80-stimulated cAMP, stable expression, N = 2): 84.5%
IC50 (human RXFP2; read-out: HEK293-human RXFP2 cAMP IC50, INSL3 EC80-stimulated cAMP, stable expression, N = 2): 15.6 nM
blockade of rRXFP1 (relaxin-stimulated cAMP) (rat RXFP1): did not block
IC50 (rat RXFP2 [2]): 0.26 nM
HEK293-rat RXFP2 cAMP % Max Response (rat RXFP2 [3]): 82.5%
IC50 (rat RXFP2 [3]; read-out: HEK293-rat RXFP2 cAMP IC50): 14.1 nM
IC50 (rat RXFP2 [4]): 0.33 nM
B1: 4G6: Human/rat cross-reactive RXFP2 monoclonal antibody, rat IgG2b backbone; binds the LDLa domain (antibody, V domains shown)
VH: EVQLQQSGPELVKPGASVKLSCKASGYTFTSYVMHWVKQKPEQGLEWIGYKNPSNDGIKYNEKFKGKATLTSDKSSNIAYMELFSLTSEDSAVYYCARSDFGSVWAMDYWGQGTSVTVSS
VL: SIVMTQTPKFLLVSAGDRVTITCKASQSVNDDIVWYQQKPGQSPKLLIYYASNRYTGVPDRFTGSGYGTDFTFTISTVQAGDLAVYFCQQDYSSPFTFGSGTKLEIK
half-life, extrapolated values ([1]; Wistar Han rats, 1 mg/kg sc., over 28 days): ≥ 11 days
estimated dose to achieve tenfold higher IC50 HEK-rRXFP2 cAMP activity for approximately 28 days in rat ([1]; from trough concentration, dose-linearity assumed): approximately 30 mg/kg
AUClast [1, 5]: 1350 ± 125 µg·h/mL
Cmax [1, 5]: 4150 ± 1200 ng/mL
Tmax [1, 5]: 9.33 ± 4.04 days
